Test results as given in patent US20090197263, “Compare-MS: Method Rapid, Sensitive and Accurate Detection of DNA Methylation” (published 2009).

B1: 1 symmetrically methylated CpG hairpin (structured_DNA)
DNA: ATCGTCGTACGTTTTCGTACGACGAT
modifications: 5mC at 2nd and 5th CpGs from 5' end (C6, C20)
B2: 2 symmetrically methylated CpG hairpin (structured_DNA)
DNA: ATCGTCGTACGTTTTCGTACGACGAT
modifications: 5mC at 1st, 2nd, 5th and 6th CpGs from 5' end (C3, C6, C20, C23)

Key:
[1] = target: T1, MBD2-MBD (methyl-binding domain of MBD2) (Homo sapiens, UniProt Q9UBB5 Q9UBB5:145-213); assay: FP; 10 nM hairpin; 50 mM NaCl, 1 mM MgCl2, 10 mM Tris pH 7.4, room temp; conditions: tags: C-terminal 6xHis (pFBC6H baculovirus vector, Sf9), label: 5'-6FAM
T1 sequence (Q9UBB5 145-213, one chain of several): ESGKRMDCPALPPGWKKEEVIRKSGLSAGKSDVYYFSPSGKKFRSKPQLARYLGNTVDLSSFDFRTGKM
Protocol: (§1) 10 nM of annealed, fluorescently-labeled hairpin oligonucleotides with the sequence 5′-6FAM-[…]-3′ (SEQ ID NO:4) with no methylated CpGs (unmethylated hairpin), 2 methylated CpGs at the 2nd and 5th CpGs from the 5′ end (1 symmetrically methylated CpG hairpin), 3 methylated CpGs toward the 3′ end (3 asymmetrically methylated CpG hairpin), 4 methylated CpGs at the 1st, 2nd, 5th, and 6th CpGs from the 5′ end (2 symmetrically methylated CpG hairpin), or 6 methylated CpGs (3 symmetrically methylated CpG hairpin) were incubated with various concentrations of recombinant MBD2-MBD in a 50 μL reaction volume containing 4% glycerol, 1 mM MgCl₂, 0.5 mM EDTA, 0.5 mM DTT, 50 mM NaCl, 10 mM Tris-HCl (pH 7.4), 0.2% Tween-20 for 1 hour at room temperature with gentle shaking. Fluorescence polarization measurements were taken in triplicate using a Beckman Coulter DTX 880 Multimode Detector as described previously (Lee et al., (2005), supra). Briefly, fluorescence anisotropies (r) were calculated as
(§2) 6His-tagged methyl-binding domain of human MBD2 (MBD2-MBD) was expressed in Sf9 insect cells using a baculoviral expression system and purified using Ni-NTA Superflow beads (Qiagen, Valencia, Calif.). The affinities of MBD2-MBD for fluorescently labeled hairpin oligonucleotides containing various configurations of CpG methylation were then determined by fluorescence polarization (FIG. 2). […]

[2] = target: T1, MBD2-MBD (methyl-binding domain of MBD2); assay: FP; 10 nM hairpin; 50 mM NaCl, 1 mM MgCl2, 10 mM Tris pH 7.4, room temp; text gives 2 or 3 sites as 156 and 222 nM respectively but cites FIGS. 2A (three pairs) and; conditions: tags: C-terminal 6xHis (pFBC6H baculovirus vector, Sf9), label: 5'-6FAM
Protocol: as §1, §2

Binder	EC50 [1] [nM]	EC50 [2] [nM]
B1	519	–
B2	–	156
